For orientation: stoichiometry N means the number of molecules, sites or subunits per partner or assembly.

For data set [1], the target named is T1, 3D mutant of HspB1 (S15D, S78D, S82D) (human, UniProt P04792 1-205, S15D | S78D | S82D).
T1 construct: human HspB1, full length, with three phosphomimicking point mutations; Forms small oligomers (probably dimers or tetramers, by cited work); also called full-length 3D mutant
The data set can be described thus: SEC; full-length sHsp (~19–20 μM per monomer) mixed with ACD (38–110 μM per monomer) in buffer B, 30 min at 42 °C; Superdex 200 Increase column in 50 mM phosphate pH 7.4, 150 mM NaCl, 2 mM DTT; fractions analysed by SDS–PAGE. The following applies: both partners purified. In general terms: Size exclusion chromatography separates by hydrodynamic size, large species first.

The target of another data set is T2, full-length HspB6 (human, UniProt O14558 1-160).
T2 construct: Predominantly dimeric by cited work; also called B6FL
T2 sequence (looked up): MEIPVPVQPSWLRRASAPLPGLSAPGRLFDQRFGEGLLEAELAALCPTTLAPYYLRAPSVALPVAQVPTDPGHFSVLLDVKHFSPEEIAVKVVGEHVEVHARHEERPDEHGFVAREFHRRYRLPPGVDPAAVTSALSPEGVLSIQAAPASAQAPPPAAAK
Nature of the data set: native gel or EMSA; clear native PAGE, 12.5% gel, 80 mM glycine–Tris pH 8.6; sHsp 5–6 μM per monomer mixed with ACD 20–24 μM per monomer, 30 min at 25 °C in buffer B; Western blot with anti-HspB6 for the complexes of HspB6. The following applies: both partners purified. Background: Mobility shift assays separate free from complexed probe on a gel.

Data set [2] concerns the molecule itself. Nature of the data set: SEC; Superdex 75 10/300 GL, 50 mM phosphate pH 7.4, 150 mM NaCl, 2 mM DTT; 25 μL samples of 16–150 μg (25–600 μM per monomer); apparent dissociation constant, dimer to monomers, from a hyperbolic fit of elution volume against the concentration loaded.
Data set [3] deals with the molecule itself. The data set can be described thus: cross-linking; glutaraldehyde 0.008% or 0.024%, ACDs at 3 mg/mL in 25 mM HEPES pH 7.5, 30 min at 30 °C; Tricine–SDS–PAGE.

T1 sequence (P04792 whole entry S15D/S78D/S82D): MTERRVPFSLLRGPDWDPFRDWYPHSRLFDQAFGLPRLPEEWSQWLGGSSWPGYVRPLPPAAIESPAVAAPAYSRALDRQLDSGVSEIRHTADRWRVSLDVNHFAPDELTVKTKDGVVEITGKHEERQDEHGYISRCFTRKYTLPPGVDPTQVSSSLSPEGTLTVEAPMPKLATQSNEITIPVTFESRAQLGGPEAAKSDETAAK

B1: α-crystallin domain of HspB5 (B5ACD) (domain or fragment, human, UniProt P02511 64-150, looked up)
chain: GLSEMRLEKDRFSVNLDVKHFSPEELKVKVLGDVIEVHGKHEERQDEHGFISREFHRKYRIPADVDPLTITSSLSSDGVLTVNGPRK
notes: human HspB5 (αB-crystallin), α-crystallin domain, residues 64-150; Cloned by NdeI and XhoI into pET23b; In equilibrium of monomers and dimers; also called HspB5 ACD; source: E. coli, purified (ammonium sulfate fractionation, ion-exchange chromatography, size-exclusion chromatography)
As for B1, the binding result (in data set [1]; with full-length HspB6) was “binds” in each case. In addition, the Kd in data set [2] is 127 µM. In data set [3], the “stoichiometry N” value turned out to be 2.

B2: α-crystallin domain of HspB6 (B6ACD) (domain or fragment, human, UniProt O14558 64-149, looked up)
chain: VAQVPTDPGHFSVLLDVKHFSPEEIAVKVVGEHVEVHARHEERPDEHGFVAREFHRRYRLPPGVDPAAVTSALSPEGVLSIQAAPA
notes: human HspB6, α-crystallin domain, residues 64-149; Cloned by NdeI and XhoI into pET23b; In equilibrium of monomers and dimers; also called HspB6 ACD; source: E. coli, purified (ammonium sulfate fractionation, ion-exchange chromatography, size-exclusion chromatography)
Take B2: the binding result in data set [1] is on record as “binds”. For the same molecule, in data set [2], the Kd amounted to 162 µM.

These data come from publication PMC9860685, “α-Crystallin Domains of Five Human Small Heat Shock Proteins (sHsps) Differ in Dimer Stabilities and Ability to Incorporate Themselves into Oligomers of Full-Length sHsps” (International Journal of Molecular Sciences, 2023).
